Patent US20120237507A1

Biological target: c-Met on A549 cells (UniProt P08581)
Assay: half-maximal binding, flow cytometry on A549 cells

Sequence of UniProt P08581 (P08581 25-1390 limits assumed): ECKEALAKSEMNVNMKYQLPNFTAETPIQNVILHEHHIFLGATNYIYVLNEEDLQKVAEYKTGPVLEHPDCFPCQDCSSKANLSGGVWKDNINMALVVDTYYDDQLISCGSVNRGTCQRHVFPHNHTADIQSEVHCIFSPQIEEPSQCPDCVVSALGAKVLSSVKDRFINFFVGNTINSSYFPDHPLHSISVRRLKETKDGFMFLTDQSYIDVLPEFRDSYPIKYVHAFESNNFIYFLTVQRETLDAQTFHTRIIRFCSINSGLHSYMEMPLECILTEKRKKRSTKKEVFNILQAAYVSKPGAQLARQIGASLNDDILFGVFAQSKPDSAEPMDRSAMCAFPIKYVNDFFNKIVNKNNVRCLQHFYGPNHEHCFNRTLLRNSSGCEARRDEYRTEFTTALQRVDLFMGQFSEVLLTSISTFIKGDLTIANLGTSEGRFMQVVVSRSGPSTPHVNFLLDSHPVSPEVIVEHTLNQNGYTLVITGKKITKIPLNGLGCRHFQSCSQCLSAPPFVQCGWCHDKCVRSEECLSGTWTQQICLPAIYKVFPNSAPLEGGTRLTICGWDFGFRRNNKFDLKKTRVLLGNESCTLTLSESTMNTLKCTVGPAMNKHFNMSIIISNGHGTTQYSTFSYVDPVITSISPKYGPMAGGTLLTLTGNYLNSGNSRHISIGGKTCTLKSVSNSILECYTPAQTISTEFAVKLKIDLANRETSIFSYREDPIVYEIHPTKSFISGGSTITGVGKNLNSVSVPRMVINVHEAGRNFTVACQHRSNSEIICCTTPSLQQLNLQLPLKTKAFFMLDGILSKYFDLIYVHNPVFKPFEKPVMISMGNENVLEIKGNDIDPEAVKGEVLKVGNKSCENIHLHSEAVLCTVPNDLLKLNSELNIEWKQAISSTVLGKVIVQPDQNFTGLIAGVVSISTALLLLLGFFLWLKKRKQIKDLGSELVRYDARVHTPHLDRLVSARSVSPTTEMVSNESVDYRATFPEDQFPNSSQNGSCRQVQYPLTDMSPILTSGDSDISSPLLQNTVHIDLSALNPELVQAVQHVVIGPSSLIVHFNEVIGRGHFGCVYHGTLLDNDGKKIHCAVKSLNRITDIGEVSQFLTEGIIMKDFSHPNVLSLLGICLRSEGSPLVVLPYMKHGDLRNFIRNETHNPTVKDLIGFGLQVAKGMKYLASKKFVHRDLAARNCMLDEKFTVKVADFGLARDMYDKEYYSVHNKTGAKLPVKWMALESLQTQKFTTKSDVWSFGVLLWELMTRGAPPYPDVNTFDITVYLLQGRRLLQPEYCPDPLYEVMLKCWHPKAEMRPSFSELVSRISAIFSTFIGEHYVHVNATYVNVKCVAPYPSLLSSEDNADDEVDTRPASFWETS

EC50: 1.45 nM
Substance: MetMAb/OA-5D5 (Genentech) (antibody)
